{"source": "paper PMC9855569", "about": "“Construction of Bi-Enzyme Self-Assembly Clusters Based on SpyCatcher/SpyTag for the Efficient Biosynthesis of (R)-Ethyl 2-hydroxy-4-phenylbutyrate” (Biomolecules, 2023)", "substrate": "CCOC(=O)C(=O)CCc1ccccc1", "experiment": "purified protein", "assay_type": "biochemical, Lodderomyces parapsilosis", "details": "apparent constant, free enzymes (CpCR with GDH), NADPH co-substrate, pH 7.0, 30 °C, OPBE 10-50 mM", "data": [{"protein": "CpCR (Lodderomyces parapsilosis) (protein, full length, 6xHis tag, recombinant in E. coli BL21(DE3), 41 kDa; free (unassembled) enzyme, in the free bi-enzyme system with GDH) MTKAVPDKFQGFAVSDPKNWNRPKLASYERKQINPHDVVLKNEVCGLCYSDIHTLSAGWQPLQRDNLVVGHEIIGEVIAVGDEVTEFKVGDRVGIGAASSSCRSCQRCDSDNEQYCKQGAATYNSKDVRSNNYVTQGGYSSHSIADEKFVFAIPEDLPSSYGAPLMCAGITVFSPLIRNLGLDARGKNVGIIGIGGLGHLALQFANAMGANVTAFSRSSSKKEQAMKLGAHDFVATGEDKTWYKNYDDHFDFILNCASGIDGLNLSEYLSTLKVDKKFVSVGLPPSEDKFEVSPFTFLQQGASFGSSLLGSKTEVKEMLNLAAKHNVRPMIEEVPISEENCAKALDRCHAGDVRYRFVFTDFDKAFKA", "values": [{"measurement": "Km", "result": 23.94, "unit": "mM"}, {"measurement": "kcat", "result": 1.76, "unit": "s⁻¹"}, {"measurement": "kcat/Km", "result": 74, "unit": "M⁻¹ s⁻¹"}]}]}
